# Laboratory results as given in article PMC4687731.
# T1: DMP1β (DMTF1 isoform β) (human, UniProt Q9Y222-2 1-272)
# T1 sequence: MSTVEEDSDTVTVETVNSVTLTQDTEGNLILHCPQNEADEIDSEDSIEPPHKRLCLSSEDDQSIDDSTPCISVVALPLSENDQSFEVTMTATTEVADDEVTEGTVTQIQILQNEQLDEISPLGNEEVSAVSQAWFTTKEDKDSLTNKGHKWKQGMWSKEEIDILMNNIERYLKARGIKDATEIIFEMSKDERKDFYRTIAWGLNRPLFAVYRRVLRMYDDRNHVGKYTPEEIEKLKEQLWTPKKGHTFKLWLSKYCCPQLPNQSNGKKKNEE
# T2: DMP1 ΔMHR (human, UniProt Q9Y222 1-223)
# T2 sequence: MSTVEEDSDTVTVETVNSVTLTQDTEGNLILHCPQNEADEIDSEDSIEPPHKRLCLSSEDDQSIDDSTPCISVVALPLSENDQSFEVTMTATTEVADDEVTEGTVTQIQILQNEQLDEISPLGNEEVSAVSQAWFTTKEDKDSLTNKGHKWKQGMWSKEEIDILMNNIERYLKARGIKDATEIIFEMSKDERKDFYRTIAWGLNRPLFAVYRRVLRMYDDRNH
# T3: DMP1γ (DMTF1 isoform γ) (human, UniProt Q9Y222-3 1-285)
# T3 sequence: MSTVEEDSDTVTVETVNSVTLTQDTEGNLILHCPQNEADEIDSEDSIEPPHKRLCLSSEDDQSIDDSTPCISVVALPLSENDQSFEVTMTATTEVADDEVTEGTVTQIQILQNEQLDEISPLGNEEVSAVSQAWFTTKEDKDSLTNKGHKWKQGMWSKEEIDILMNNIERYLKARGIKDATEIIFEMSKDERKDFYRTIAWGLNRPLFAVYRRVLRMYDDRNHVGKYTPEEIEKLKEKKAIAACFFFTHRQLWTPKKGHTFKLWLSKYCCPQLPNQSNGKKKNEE
# T4: DMP1α (DMTF1 isoform α) (human, UniProt Q9Y222 1-760)
# T4 sequence: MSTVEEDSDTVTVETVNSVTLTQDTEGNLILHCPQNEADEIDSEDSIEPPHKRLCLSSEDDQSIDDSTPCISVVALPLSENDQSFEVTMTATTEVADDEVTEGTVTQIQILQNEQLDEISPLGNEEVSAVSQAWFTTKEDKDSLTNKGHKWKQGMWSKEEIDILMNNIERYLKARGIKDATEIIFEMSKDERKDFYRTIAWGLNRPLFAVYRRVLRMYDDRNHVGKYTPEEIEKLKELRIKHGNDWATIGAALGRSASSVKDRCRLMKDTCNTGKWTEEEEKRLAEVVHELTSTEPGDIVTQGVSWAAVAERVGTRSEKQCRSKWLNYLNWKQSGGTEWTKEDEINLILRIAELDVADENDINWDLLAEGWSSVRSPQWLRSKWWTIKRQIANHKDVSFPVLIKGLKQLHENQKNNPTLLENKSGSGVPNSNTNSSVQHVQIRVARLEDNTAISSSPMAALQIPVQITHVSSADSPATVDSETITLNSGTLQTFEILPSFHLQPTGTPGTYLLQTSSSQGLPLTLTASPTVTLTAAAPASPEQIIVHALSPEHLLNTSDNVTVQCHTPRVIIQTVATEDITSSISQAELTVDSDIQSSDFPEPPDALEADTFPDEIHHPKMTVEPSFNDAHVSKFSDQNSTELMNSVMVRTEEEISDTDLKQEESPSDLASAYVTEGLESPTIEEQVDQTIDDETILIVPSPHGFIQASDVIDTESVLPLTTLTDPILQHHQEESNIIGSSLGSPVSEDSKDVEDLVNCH
# Columns and labels:
# Assay in all cases: EMSA
# DMP1β (DMTF1 isoform β) = target: T1, DMP1β (DMTF1 isoform β)
# DMP1 ΔMHR = target: T2, DMP1 ΔMHR
# DMP1γ (DMTF1 isoform γ) = target: T3, DMP1γ (DMTF1 isoform γ)
# DMP1α (DMTF1 isoform α) = target: T4, DMP1α (DMTF1 isoform α)
binder,measurement,setting,value
human ARF promoter DMP1 site probe (dsDNA) DNA 1: GTCAGGTGACGGATGTAGCTAGG DNA 2: CCTAGCTACATCCGTCACCTGAC,binding result,DMP1β (DMTF1 isoform β),no binding
same,binding result,DMP1 ΔMHR,no binding
same,binding result,DMP1γ (DMTF1 isoform γ),no binding
same,binding result,DMP1α (DMTF1 isoform α),binds
